Test results as given in publication PMC9323411.

Target: CLDmut (CD4-linker-DC-SIGN fusion protein with a linker of 8 Gly4Ser repeats and the Cys-to-Ser back (human) (UniProt P01730))
Assay: BLI

## trimeric HIV-1 CN54 gp140 (domain or fragment)
  Kd: 0.39 nM
  koff: 1.62e-05 s⁻¹
  kon: 41100 M⁻¹ s⁻¹
